Among the data in article PMC9722916 are stoichiometry N values, retold here.

For this assay, the target named is T1, rat TRPV2, C-terminally fused to GFP and a His8-tag (rat), Q9WUD2.
T1 chain: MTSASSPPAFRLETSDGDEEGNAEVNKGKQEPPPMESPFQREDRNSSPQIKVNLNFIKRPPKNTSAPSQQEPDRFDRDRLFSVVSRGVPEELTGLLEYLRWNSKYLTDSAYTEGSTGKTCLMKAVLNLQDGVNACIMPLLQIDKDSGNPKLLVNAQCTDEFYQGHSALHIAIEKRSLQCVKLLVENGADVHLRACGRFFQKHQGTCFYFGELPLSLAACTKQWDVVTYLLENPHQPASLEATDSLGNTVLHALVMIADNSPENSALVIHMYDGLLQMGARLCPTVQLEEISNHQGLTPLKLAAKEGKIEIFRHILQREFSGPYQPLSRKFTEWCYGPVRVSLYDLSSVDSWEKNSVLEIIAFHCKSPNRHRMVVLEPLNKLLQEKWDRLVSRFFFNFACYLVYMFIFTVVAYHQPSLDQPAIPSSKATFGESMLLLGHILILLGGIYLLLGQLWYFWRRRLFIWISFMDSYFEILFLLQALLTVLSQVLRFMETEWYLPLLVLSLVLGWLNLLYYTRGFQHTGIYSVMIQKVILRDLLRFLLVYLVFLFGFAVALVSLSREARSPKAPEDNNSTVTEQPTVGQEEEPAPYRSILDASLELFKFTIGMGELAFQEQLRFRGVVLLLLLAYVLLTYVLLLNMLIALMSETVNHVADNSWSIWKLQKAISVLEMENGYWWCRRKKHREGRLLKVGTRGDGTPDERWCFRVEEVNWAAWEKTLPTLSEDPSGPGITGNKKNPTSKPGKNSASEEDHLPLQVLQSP
Put plainly: cryo-EM structure; purified rat TRPV2 in GDN (20 mM Tris 8.0, 150 mM NaCl, 0.4 mg/ml GDN), incubated with C16 (50 uM) and probenecid (2 mM), alone or in combination, at room temperature for 15 min; C4 symmetry (C16 and probenecid structures), C1 symmetry (C16+probenecid structures). Conditions: remark: other sources report otherwise.

B1: rat TRPV2, C-terminally fused to GFP and a His8-tag, Q9WUD2 1-761 (natural protein)
chain: MTSASSPPAFRLETSDGDEEGNAEVNKGKQEPPPMESPFQREDRNSSPQIKVNLNFIKRPPKNTSAPSQQEPDRFDRDRLFSVVSRGVPEELTGLLEYLRWNSKYLTDSAYTEGSTGKTCLMKAVLNLQDGVNACIMPLLQIDKDSGNPKLLVNAQCTDEFYQGHSALHIAIEKRSLQCVKLLVENGADVHLRACGRFFQKHQGTCFYFGELPLSLAACTKQWDVVTYLLENPHQPASLEATDSLGNTVLHALVMIADNSPENSALVIHMYDGLLQMGARLCPTVQLEEISNHQGLTPLKLAAKEGKIEIFRHILQREFSGPYQPLSRKFTEWCYGPVRVSLYDLSSVDSWEKNSVLEIIAFHCKSPNRHRMVVLEPLNKLLQEKWDRLVSRFFFNFACYLVYMFIFTVVAYHQPSLDQPAIPSSKATFGESMLLLGHILILLGGIYLLLGQLWYFWRRRLFIWISFMDSYFEILFLLQALLTVLSQVLRFMETEWYLPLLVLSLVLGWLNLLYYTRGFQHTGIYSVMIQKVILRDLLRFLLVYLVFLFGFAVALVSLSREARSPKAPEDNNSTVTEQPTVGQEEEPAPYRSILDASLELFKFTIGMGELAFQEQLRFRGVVLLLLLAYVLLTYVLLLNMLIALMSETVNHVADNSWSIWKLQKAISVLEMENGYWWCRRKKHREGRLLKVGTRGDGTPDERWCFRVEEVNWAAWEKTLPTLSEDPSGPGITGNKKNPTSKPGKNSASEEDHLPLQVLQSP
The stoichiometry N is the number of molecules, sites or subunits per partner or assembly. On to B1, for which the stoichiometry N turned out to be 4.
